Here are results for four molecules from paper PMC10465574, “Chlorfenapyr metabolism by mosquito P450s associated with pyrethroid resistance identifies potential activation markers” (Scientific Reports, 2023).

Usually IC50 stands for the concentration needed to halve the response being measured. A lower IC50 goes with greater potency in that assay. As a reminder, the inhibition is the percentage by which the read-out fell short of the control. Read a low inhibition as a weak effect. Broadly, the Km is the substrate concentration at which the rate is half of its maximum. By kcat is commonly meant the number of substrate molecules converted per active site and unit of time at saturation.

Series [1] deals with T1, CYP6P3 (Anopheles gambiae, UniProt Q8T632).
T1 construct: recombinant, pCWori+ vector, E. coli membranes co-expressing An. gambiae CPR; cytochrome b5 added in metabolism assays; with NADPH--cytochrome P450 reductase
T1 sequence (Q8T632 1-509): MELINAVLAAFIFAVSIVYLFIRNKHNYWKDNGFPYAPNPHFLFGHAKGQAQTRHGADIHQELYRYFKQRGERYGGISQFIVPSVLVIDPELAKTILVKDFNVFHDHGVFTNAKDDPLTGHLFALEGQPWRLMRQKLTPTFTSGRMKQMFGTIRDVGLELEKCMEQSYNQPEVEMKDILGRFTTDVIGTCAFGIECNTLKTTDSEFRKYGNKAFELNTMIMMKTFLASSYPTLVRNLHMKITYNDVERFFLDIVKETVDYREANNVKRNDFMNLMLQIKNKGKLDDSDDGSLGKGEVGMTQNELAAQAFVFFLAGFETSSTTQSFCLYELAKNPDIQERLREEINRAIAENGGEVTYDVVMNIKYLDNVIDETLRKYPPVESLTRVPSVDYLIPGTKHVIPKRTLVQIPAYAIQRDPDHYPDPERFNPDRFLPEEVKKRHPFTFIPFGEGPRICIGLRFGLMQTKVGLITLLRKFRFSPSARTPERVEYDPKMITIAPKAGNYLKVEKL
T1 sequence (Q86QH5 1-679 partner): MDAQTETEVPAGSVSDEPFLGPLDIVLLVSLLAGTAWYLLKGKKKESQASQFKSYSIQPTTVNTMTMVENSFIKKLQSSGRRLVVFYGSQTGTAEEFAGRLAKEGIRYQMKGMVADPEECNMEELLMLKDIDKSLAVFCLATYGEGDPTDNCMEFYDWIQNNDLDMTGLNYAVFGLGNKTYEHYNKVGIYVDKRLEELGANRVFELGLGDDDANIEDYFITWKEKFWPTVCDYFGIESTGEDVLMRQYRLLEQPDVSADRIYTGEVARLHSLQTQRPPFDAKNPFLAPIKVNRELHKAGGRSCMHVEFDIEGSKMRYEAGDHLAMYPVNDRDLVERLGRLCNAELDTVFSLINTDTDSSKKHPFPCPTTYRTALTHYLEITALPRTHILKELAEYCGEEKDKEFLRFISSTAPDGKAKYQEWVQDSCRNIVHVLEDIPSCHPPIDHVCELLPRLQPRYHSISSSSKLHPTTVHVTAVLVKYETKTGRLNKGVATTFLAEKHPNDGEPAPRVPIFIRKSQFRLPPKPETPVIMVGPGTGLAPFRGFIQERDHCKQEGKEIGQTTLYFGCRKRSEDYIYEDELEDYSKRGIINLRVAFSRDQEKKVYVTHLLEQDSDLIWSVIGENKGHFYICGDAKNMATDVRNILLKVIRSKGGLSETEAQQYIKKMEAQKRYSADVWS
The series is described as follows: inhibition of diethoxyfluorescein (DEF) fluorescent probe metabolism. Type of series: biochemical.

Series [2] addresses T2, CYP9K1 (Anopheles gambiae, UniProt Q8T633).
T2 construct: recombinant, pCWori+ vector, E. coli membranes co-expressing An. gambiae CPR; cytochrome b5 added; with NADPH--cytochrome P450 reductase
T2 sequence (Q8T633 1-531): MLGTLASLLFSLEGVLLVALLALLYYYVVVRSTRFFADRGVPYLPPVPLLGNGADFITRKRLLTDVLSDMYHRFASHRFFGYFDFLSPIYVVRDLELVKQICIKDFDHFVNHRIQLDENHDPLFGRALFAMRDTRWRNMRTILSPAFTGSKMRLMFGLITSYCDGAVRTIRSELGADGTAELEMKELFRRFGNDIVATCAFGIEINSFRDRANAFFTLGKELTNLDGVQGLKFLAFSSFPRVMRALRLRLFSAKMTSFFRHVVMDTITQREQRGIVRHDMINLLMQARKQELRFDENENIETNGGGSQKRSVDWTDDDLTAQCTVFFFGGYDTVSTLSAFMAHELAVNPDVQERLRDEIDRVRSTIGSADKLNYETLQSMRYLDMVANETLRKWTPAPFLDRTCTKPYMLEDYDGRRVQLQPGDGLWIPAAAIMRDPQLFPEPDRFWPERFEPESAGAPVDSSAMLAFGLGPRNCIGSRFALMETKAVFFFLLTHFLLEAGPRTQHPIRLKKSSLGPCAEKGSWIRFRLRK
T2 sequence (Q86QH5 1-679 partner): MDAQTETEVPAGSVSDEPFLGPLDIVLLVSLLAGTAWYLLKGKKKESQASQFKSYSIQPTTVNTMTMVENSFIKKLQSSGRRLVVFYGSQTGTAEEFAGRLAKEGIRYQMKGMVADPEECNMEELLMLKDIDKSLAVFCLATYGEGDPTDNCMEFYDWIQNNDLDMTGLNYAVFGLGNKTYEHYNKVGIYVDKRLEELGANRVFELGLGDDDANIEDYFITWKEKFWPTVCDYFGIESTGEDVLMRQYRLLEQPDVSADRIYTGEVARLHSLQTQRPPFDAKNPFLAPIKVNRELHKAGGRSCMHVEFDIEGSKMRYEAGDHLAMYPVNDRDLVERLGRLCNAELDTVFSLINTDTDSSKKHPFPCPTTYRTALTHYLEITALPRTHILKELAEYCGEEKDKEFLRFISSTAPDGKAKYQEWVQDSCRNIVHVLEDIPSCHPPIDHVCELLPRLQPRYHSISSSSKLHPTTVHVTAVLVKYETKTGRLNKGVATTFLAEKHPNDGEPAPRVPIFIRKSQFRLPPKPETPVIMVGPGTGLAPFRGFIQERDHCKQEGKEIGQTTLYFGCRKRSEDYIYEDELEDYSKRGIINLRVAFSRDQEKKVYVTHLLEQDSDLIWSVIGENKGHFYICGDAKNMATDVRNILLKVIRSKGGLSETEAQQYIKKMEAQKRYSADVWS
The series is described as follows: inhibition of chlorfenapyr depletion, HPLC. It counts as biochemical.

Substrate in series [3]: CCOCn1c(-c2ccc(Cl)cc2)c(C#N)c(Br)c1C(F)(F)F
The series is described as follows: tralopyril formation by HPLC, Michaelis-Menten fit. The conditions noted are these: NADPH regeneration system, 0.8 µM cytochrome b5, 50 mM potassium phosphate pH 7.4, recombinant E. coli membranes. It counts as biochemical, Anopheles gambiae.

With `CCOCn1c(-c2ccc(Cl)cc2)c(C#N)c(Br)c1C(F)(F)F` [chlorfenapyr], the IC50 in series [1] was found to be 30.4 µM. The molecule `CC1(C)C(C=C(Cl)Cl)C1C(=O)OC(C#N)c1cccc(Oc2ccccc2)c1` (stereo not drawn) [α-cypermethrin] had an inhibition at 10 µM in series [2] of 56.8%. The molecule also returned an IC50 in series [1] of 16.7 µM.

B1: CYP6P3 (Anopheles gambiae) (protein)
chain: MELINAVLAAFIFAVSIVYLFIRNKHNYWKDNGFPYAPNPHFLFGHAKGQAQTRHGADIHQELYRYFKQRGERYGGISQFIVPSVLVIDPELAKTILVKDFNVFHDHGVFTNAKDDPLTGHLFALEGQPWRLMRQKLTPTFTSGRMKQMFGTIRDVGLELEKCMEQSYNQPEVEMKDILGRFTTDVIGTCAFGIECNTLKTTDSEFRKYGNKAFELNTMIMMKTFLASSYPTLVRNLHMKITYNDVERFFLDIVKETVDYREANNVKRNDFMNLMLQIKNKGKLDDSDDGSLGKGEVGMTQNELAAQAFVFFLAGFETSSTTQSFCLYELAKNPDIQERLREEINRAIAENGGEVTYDVVMNIKYLDNVIDETLRKYPPVESLTRVPSVDYLIPGTKHVIPKRTLVQIPAYAIQRDPDHYPDPERFNPDRFLPEEVKKRHPFTFIPFGEGPRICIGLRFGLMQTKVGLITLLRKFRFSPSARTPERVEYDPKMITIAPKAGNYLKVEKL
notes: recombinant, pCWori+ vector, E. coli membranes co-expressing An. gambiae CPR; cytochrome b5 added in metabolism assays; with NADPH--cytochrome P450 reductase
Take B1: in series [3], the Km worked out at 16.32 µM and the kcat was found to be 0.0285 s⁻¹.

B2: CYP9K1 (Anopheles gambiae) (protein)
chain: MLGTLASLLFSLEGVLLVALLALLYYYVVVRSTRFFADRGVPYLPPVPLLGNGADFITRKRLLTDVLSDMYHRFASHRFFGYFDFLSPIYVVRDLELVKQICIKDFDHFVNHRIQLDENHDPLFGRALFAMRDTRWRNMRTILSPAFTGSKMRLMFGLITSYCDGAVRTIRSELGADGTAELEMKELFRRFGNDIVATCAFGIEINSFRDRANAFFTLGKELTNLDGVQGLKFLAFSSFPRVMRALRLRLFSAKMTSFFRHVVMDTITQREQRGIVRHDMINLLMQARKQELRFDENENIETNGGGSQKRSVDWTDDDLTAQCTVFFFGGYDTVSTLSAFMAHELAVNPDVQERLRDEIDRVRSTIGSADKLNYETLQSMRYLDMVANETLRKWTPAPFLDRTCTKPYMLEDYDGRRVQLQPGDGLWIPAAAIMRDPQLFPEPDRFWPERFEPESAGAPVDSSAMLAFGLGPRNCIGSRFALMETKAVFFFLLTHFLLEAGPRTQHPIRLKKSSLGPCAEKGSWIRFRLRK
notes: recombinant, pCWori+ vector, E. coli membranes co-expressing An. gambiae CPR; cytochrome b5 added; with NADPH--cytochrome P450 reductase
Turning to B2, in series [3], the Km was 10.13 µM and the kcat came to 0.112 s⁻¹.
